For 2 substances, stoichiometry N results are on record in paper PMC10827179.

The target in test [1] is S. mutans CLC^F F-/H+ antiporter encoded by ORF 1289 (SMU.1289) (Streptococcus mutans UA159). As to the kind of experiment: cross-linking.
The target of test [2] is S. mutans CLC^F homologue encoded by ORF 1290 (SMU.1290) (Streptococcus mutans UA159). As to the kind of experiment: cross-linking.

For the substance “S. mutans CLC^F F-/H+ antiporter encoded by ORF 1289 (SMU.1289) (natural protein)”, the stoichiometry N in test [1] is 2.
Consider “S. mutans CLC^F homologue encoded by ORF 1290 (SMU.1290) (natural protein)”, for which the stoichiometry N in test [2] was 2.

As a reminder, the stoichiometry N is a count of units in the complex or per binding partner.
